Target: human KIX domain of CBP with saturating DUX4 9aaTAD peptide (human, UniProt Q92793;Q9UBX2)
Test: MST

Chain of human KIX domain of CBP with saturating DUX4 9aaTAD peptide (Q92793 587-673, one chain of several): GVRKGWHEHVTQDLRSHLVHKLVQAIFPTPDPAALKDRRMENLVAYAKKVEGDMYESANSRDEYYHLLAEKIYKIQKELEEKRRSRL

- Kd: ~1100 nM
Binder: EEEYRALLEE [DUX4 KBM peptide (E414-E423)]

— article doi:10.1101/732289 (bioRxiv, 2020)
